# Laboratory results as given in patent US12012457 (SYNTHEKINE, dated 2024).
# T1: extracellular domain of mouse IL23R (mIL23R ECD) (mouse, UniProt Q8K4B4 24-374)
# T1 construct: also called mIL-23 ECD antigen
# T1 sequence: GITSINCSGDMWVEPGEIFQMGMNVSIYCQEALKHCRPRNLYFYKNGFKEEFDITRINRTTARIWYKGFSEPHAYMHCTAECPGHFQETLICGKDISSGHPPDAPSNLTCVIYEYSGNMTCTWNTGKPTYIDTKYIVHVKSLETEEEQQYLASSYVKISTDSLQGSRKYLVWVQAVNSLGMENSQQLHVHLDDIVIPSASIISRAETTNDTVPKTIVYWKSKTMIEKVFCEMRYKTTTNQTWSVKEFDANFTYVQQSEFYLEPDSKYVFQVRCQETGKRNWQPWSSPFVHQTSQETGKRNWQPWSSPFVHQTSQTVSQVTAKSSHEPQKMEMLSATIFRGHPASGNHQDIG
# Target: T1, extracellular domain of mouse IL23R …
# Assay: periplasmic extract ELISA (PE-ELISA), 96-well plate, colorimetric
row,Binder,binding result
1,mIL23R VHH18 (VHH) VHH: QVQLQESGGGLVQPGGSLRLSCAASGFTFRLTAMRWVRQAPGKGLEWVSGIDSRGSTIYADSVKGRFTISKDNAKNTLYLQLNSLKTEDTAMYYCAQGVYGDTYSGSQGTQVTVSS,binds
2,mIL23R VHH17 (VHH) VHH: QVQLQESGGGSVQAGGSLRLSCAASGFTFRLTAMRWVRQAPGKGLEWVSGIDSRGSTIYADSVKGRFTISKDNAKNTLYLQLNSLKTEDTAMYYCAQGVYGDTYSGSQGTQVTVSS,binds
3,mIL23R VHH40 (VHH) VHH: QVQLQESGGGLVQPGGSLRLSCAASGFTFRLTAMRWVRQAPGKGLEWVSGIDSRGSTIYADSVKGRFTISKDNAKNTLYLQLNSLKSEDTAMYYCAQGVYGDTYSGSQGTQVTVSS,binds
4,mIL23R VHH30 (VHH) VHH: QVQLQESGGGLVQPGGSLRLSCAASGFTFRLTAMRWVRQAPGKGLEWVSGIDSRGSTIYADSVKGRFTISKDNAKNTLYLQLNSLKTEDTAMYYCAQGVYGDTYSGSLGTQVTVSS,binds
5,mIL23R VHH23 (VHH) VHH: QVQLQESGGGLVQPGGSLRLSCAASGFNFRLYAMRWVRQAPGKGVEWVSGIDSGGSTIYADSVKGRFTISKDNAKNTLYLQLNSLKTEDTAMYYCAQGVYGDTYSGSQGTQVTVSS,binds
6,mIL23R VHH44 (VHH) VHH: QVQLQESGGGLVQPGGSLRLSCAASGFTFRLSAMRWVRQAPGKGFEWVSGIDSRGSTIYADSVKGRFTISKDNAKNTLYLQLNSLKTEDTAMYYCAQGVYGDTYSGSQGTQVTVSS,binds
7,mIL23R VHH45 (VHH) VHH: QVQLQESGGGLVQPGGSLRLSCAASGFTFRLSAMRWVRQAPGKGLEWVSGIDSRGSTIYADSVEGRFTISKDNAKNTLYLQLNSLKTEDTAMYYCAQGVYGDTYSGSQGTQVTVSS,binds
8,mIL23R VHH28 (VHH) VHH: QVQLQESGGGLVQPGGSLRLSCAASGFTFRLTAMRWVRQAPGKGLEWVSGIDSRGSTIYADSVKGRFTISRDNAKNTLYLQLNSLKTEDAAMYYCAQGVYGDTYSGSQGTQVTVSS,binds
9,mIL23R VHH19 (VHH) VHH: QVQLQESGGGLVQPGGSLRLSCAASGFTFRLSAMRWVRQAPGKGLEWVSGIDSRGSTIYADSVKGRFTISKDNAKNTLYLQLNSLKTEDTAMYYCAQGVYGDTYSGSQGTQVTVSS,binds
10,mIL23R VHH31 (VHH) VHH: QVQLQESGGGLVQPGGSLRLSCAASGFTFRLTAMRWVRQAPGKGLEWVSGIDSRGSTIYADSVKGRFTISRDNAKNTLYLQLNSLKTEDTAMYYCAQGVYGDTYSGSQGTQVTVSS,binds
11,mIL23R VHH2 (VHH) VHH: QVQLQESGGGSVQAGGSLTLSCTAPGFTFRLAAMRWVRQAPGKGLEWVSGIDSRGSTIYADSVKGRFTISKDNAKNTLYLQLNSLKTEDTAMYYCAQGVYGDTYSGSQGTQVTVSS,binds
12,mIL23R VHH42 (VHH) VHH: QVQLQESGGGLVQPGGSLRLSCAASGFTFSNYAMRWVRQAPGKGLEWVSGIDSRGSTIYADSVKGRFTISKDNAKNTLYLQLNSLKTEDTAMYYCAQGVYGDTYSGSQGTQVTVSS,binds
13,mIL23R VHH13 (VHH) VHH: QVQLQESGGGLVQPGGSLRLSCATSGFTFRLAAMRWVRQAPGKGLEWVSGIDSRGSTIYADSVKGRFTISKDNAKNTLYLQLNSLKTEDTAMYYCAQGVYGDTYSGSQGTQVTVSS,binds
14,mIL23R VHH12 (VHH) VHH: QVQLQESGGGSVQAGGSLRLSCAASGYTYSSCTMGWYRQAPGKERELVSMLISDGSTFYADSVKGRFTFSQENAKNTVYLQMNSLKPEDTAMYYCGCATLGSRTVWGQGTQVTVSS,binds
15,mIL23R VHH26 (VHH) VHH: QVQLQESGGGSVQAGGSLRLSCAASGYTFCMAWFRQAPGKEREGVARFYTRDGYTYYSDSVKGRFTISQNNAKNTLYLQMNSLKSEDTAMYYCAADLTRCSSNKNDFRYWGQGTQVTVSS,binds

# Second part, the binder after the results:
row,binding result,Binder
1,binds,mIL23R VHH9 (VHH) VHH: QVQLQESGGGLVQPGGSLRLSCATSGFTFRLTAMRWVRQAPGKGVEWVSGIDSAGSTIYADSVKGRFTISKDNAKNTLYLQMNSLKTEDTAMYYCAQGVYGDTYSGSQGTQVTVSS
2,binds,mIL23R VHH46 (VHH) VHH: QVQLQESGGGLVQPGGSLRLSCAASGFTFRLSAMRWVRQAPGKGLEWVSGIDSRGSTIYADSVKGRFTISKDDAKNTLYLQLNSLKTEDTAMYYCAQGVYGDTYSGSQGTQVTVSS
3,binds,mIL23R VHH34 (VHH) VHH: QVQLQESGGGLVQPGGSLRLSCAASGFTFRLTAMRWVRQAPGKGLEWVSGIDSRGSTIYADSVKGRFTISKDNAKNTLYLQLNSLKTEDTAMYYCAQGVYGDTHSGSQGTQVTVSS
4,binds,mIL23R VHH3 (VHH) VHH: QVQLQESGGGSVQAGGSLRLSCTASVNTYCEYNMSWYRQAPGKEREFVSGVDSDGSTRYSESVKGRFTISQDNAKNTMYLQMNGLKPEDTAMYYCKTYVCTFCSGNSCYYEYKYYYEGQGTQVTVSS
5,binds,mIL23R VHH4 (VHH) VHH: QVQLQESGGGSVQAGGSLRLSCAASGYTYSNNCMGWFRQAPGKDRERIANIYTGGGRTTYADSVKGRFTISQDSAKSTVYLQMNSLKPEDTAMYYCAAGSCGSARSEYSYWGQGTQVTVSS
6,binds,mIL23R VHH11 (VHH) VHH: QVQLQESGGGSVQAGGSLRLSCAASGYTYSSCTMGWYRQAPGKERELVSMLISDGSTFYADSVKGRFTFSQENAKSTVYLQMNSLKPEDTAMYYCGCATLGSRTVWGQGTQVTVSS
7,binds,mIL23R VHH25 (VHH) VHH: QVQLQESGGGSVQAGGSLRLSCAASGYTYSSCTMGWYRQAPGKERELVSMLISDGSTFYADSVKGRFTFSQENAKNTVYLQMNSLKPEDTAMYFCGCATLGSRTVWGQGTQVTVSS
8,binds,mIL23R VHH27 (VHH) VHH: QVQLQESGGGSVQAGGSLRLSCAASGYTYSSCTMGWYRQAPGKERELVSMLISDGSTFYADSVKGRFTSSQENAKNTVYLQMNSLKPEDTAMYYCGCATLGSRTVWGQGTQVTVSS
9,binds,mIL23R VHH36 (VHH) VHH: QVQLQESGGGSVQAGGSLRLSCAASGDTYSSCTMGWYRQAPGKERDLVSMVFSDGSTFYADSVKGRFTFSQENAKNTVYLQMNSLKPEDTAMYYCGCATLGSRTIWGQGTQVTVSS
10,binds,mIL23R VHH16 (VHH) VHH: QVQLQESGGGSVQAGGSLRLSCAASGDTYSSCTMGWYRQAPGKERDLVSMLMGDGSTFYADSVKGRFTFSQENAKNTVYLQMNNLKPEDTAMYYCGCATLGSRTIWGQGTQVTVSS
11,binds,mIL23R VHH8 (VHH) VHH: QVQLQESGGGSVQAGGSLRLSCTASRYTYSSCTMGWYRQAPGKERELVSMVFSDGSTFYADSVKGRFTFSQENAKNTVYLQMNSLKPEDTAMYYCGCATLGSRTIWGQGTQVTVSS
12,binds,mIL23R VHH10 (VHH) VHH: QVQLQESGGGSVQAGGSLRLSCAASGDTYSSCTMGWYRQAPGKERDLVSMLMGDGSTFYADSVKGRFTFSQENAKNTVYLQMNSLKPEDTAMYYCGCATLGSRTIWGQGTQVTVSS
13,binds,mIL23R VHH15 (VHH) VHH: QVQLQESGGGSVQAGGSLRLSCAASGYTYSSCTMGWYRQAPGKERELVSMVFSDGSTFYADSVKGRFTFSQENAKNTVYLQMNSLKPEDTAMYYCGCATLGSRTIWGQGTQVTVSS
14,binds,mIL23R VHH1 (VHH) VHH: QVQLQESGGGSVQAGGSLRLSCAASGYTYSSCTMGWYRQAPGKERELVSMLISDGSTFYADSVKGRFTFSQEYAKNTVYLQMNSLKPEDTAMYYCGCATLGSRTVWGQGTQVTVSS
15,binds,mIL23R VHH22 (VHH) VHH: QVQLQESGGGSVQAGGSLRLSCAASGYTFCMAWFRQAPGKEREGVARFYTRDSYTYYSDSVKGRFTISQNNAKNTLYLQMNSLKSEDTAMYYCAADLTRCSSNKNDFRYWGQGTQVTVSS
16,binds,mIL23R VHH5 (VHH) VHH: QVQLQESGGGSVQAGGSLRLSCAASGYTFCMAWFRQAPGKEREGVARFYTRDGYTYYSDSVKGRFTISQNNAKNTLYLQMNSLKSEDTAMYYCAADLARCSSNKNDFRYWGQGTQVTVSS
17,binds,mIL23R VHH24 (VHH) VHH: QVQLQESGGGSVQAGGSLRLSCAVSGYTFCMAWFRQAPGKEREGVARFYTRDGYTYYSGSVKGRFTISQNNAKNTLYLQMNSLKSEDTAMYYCAADLTRCSSNKNDFRYWGQGTQVTVSS
